One block for each binder: values may come before it.
Legend:
She2p (wild type) [1] = molecular target: T1, She2p (wild type) (Saccharomyces cerevisiae, UniProt P36068 1-246); experiment: SEC; analytical; She2p, His-She3p C-terminal fragment and RNA (ternary complex formation, Figure 4E); which RNA is not told in the legend; settings: both partners purified
T1 construct: She2p, Saccharomyces cerevisiae, Gene ID 853728; also called She2p (wt); wild-type She2p

She2p (wild type) [2] = molecular target: T1, She2p (wild type); experiment: pull-down; His-tagged She3p (full length, point mutants, or MBP-She3p fragment-His) on nickel sepharose, no RNA; 7.5–10 µM of each protein, HNMD-buffer (20 mM HEPES pH 7.8, 200 mM NaCl, 2 mM MgCl2, 2 mM DTT) with 30–50 mM imidazole, 30–60 min at 4°C; SDS-PAGE, Coomassie; settings: both partners purified

T1 sequence (P36068 whole entry, the tested form may be a part): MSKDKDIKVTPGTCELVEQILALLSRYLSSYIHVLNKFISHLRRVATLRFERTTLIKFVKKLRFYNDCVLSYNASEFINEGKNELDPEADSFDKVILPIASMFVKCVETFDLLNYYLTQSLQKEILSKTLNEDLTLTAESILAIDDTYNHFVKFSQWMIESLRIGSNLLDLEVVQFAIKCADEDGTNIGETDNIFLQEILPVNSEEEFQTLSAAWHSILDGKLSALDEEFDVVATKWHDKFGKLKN

binding result (She2p (wild type) [1]): binds
B1: His-She3p (334–425) (domain or fragment, Saccharomyces cerevisiae)
chain: GPLGSMGNSSNNKRRSFYTASPLLSSGSIPKSASPVLPGVKRTASVRKPSSSSSKTNVTHNNDPSTSPTISVPPGVTRTVSSTHKKKGNSMVVHGAQS
notes: it precedes G334 at the N-terminus of the construct

binding result (She2p (wild type) [2]): binds
B2: MBP-She3p(334–425)-His (domain or fragment, Saccharomyces cerevisiae, UniProt P38272 334-425, looked up)
chain: GNSSNNKRRSFYTASPLLSSGSIPKSASPVLPGVKRTASVRKPSSSSSKTNVTHNNDPSTSPTISVPPGVTRTVSSTHKKKGNSMVVHGAQS

binding result (She2p (wild type) [2]): binds
B3: MBP-She3p(354–425)-His (domain or fragment, Saccharomyces cerevisiae, UniProt P38272 354-425, looked up)
chain: GSIPKSASPVLPGVKRTASVRKPSSSSSKTNVTHNNDPSTSPTISVPPGVTRTVSSTHKKKGNSMVVHGAQS

Source: article PMC3079584, “A Cytoplasmic Complex Mediates Specific mRNA Recognition and Localization in Yeast” (PLoS Biology, 2011)
